From PMC5333631 (Scientific Reports, 2017)

Target: 6xHis-TrxA-BoNT/A2-HC (UniProt Q45894 871-1296)
Assay: pull-down
Conditions: both partners purified

6xHis-TrxA-BoNT/A2-HC, sequence (Q45894 871-1296): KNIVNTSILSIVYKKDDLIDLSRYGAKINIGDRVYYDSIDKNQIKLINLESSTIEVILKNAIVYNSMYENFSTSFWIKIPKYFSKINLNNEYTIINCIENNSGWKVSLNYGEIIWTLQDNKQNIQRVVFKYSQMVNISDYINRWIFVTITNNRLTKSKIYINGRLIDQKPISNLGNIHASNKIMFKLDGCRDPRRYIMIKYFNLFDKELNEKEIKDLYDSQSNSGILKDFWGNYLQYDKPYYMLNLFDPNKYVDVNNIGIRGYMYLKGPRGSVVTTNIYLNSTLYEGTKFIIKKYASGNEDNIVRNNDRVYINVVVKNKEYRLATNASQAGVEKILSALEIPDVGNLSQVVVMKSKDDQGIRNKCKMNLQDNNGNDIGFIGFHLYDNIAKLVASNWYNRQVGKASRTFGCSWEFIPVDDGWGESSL

B1: luminal domain (LD) of human SV2C (domain or fragment, UniProt Q496J9 456-574, looked up)
chain: DVIKPLQSDEYALLTRNVERDKYANFTINFTMENQIHTGMEYDNGRFIGVKFKSVTFKDSVFKSCTFEDVTSVNTYFKNCTFIDTVFDNTDFEPYKFIDSEFKNCSFFHNKTGCQITFD
notes: also called SV2C-LD; untagged SV2C-LD; not shown: 6xHis, N-terminal, cleaved
binding result: binds
